B1: s-OPA1 K328R (domain or fragment, human, UniProt O60313-1 195-960, looked up)
chain: ATDRGSESDKHFRKVSDKEKIDQLQEELLHTQLKYQRILERLEKENKELRKLVLQKDDKGIHHRKLKKSLIDMYSEVLDVLSDYDASYNTQDHLPRVVVVGDQSAGKTSVLEMIAQARIFPRGSGEMMTRSPVRVTLSEGPHHVALFKDSSREFDLTKEEDLAALRHEIELRMRKNVKEGCTVSPETISLNVKGPGLQRMVLVDLPGVINTVTSGMAPDTKETIFSISKAYMQNPNAIILCIQDGSVDAERSIVTDLVSQMDPHGRRTIFVLTKVDLAEKNVASPSRIQQIIEGKLFPMKALGYFAVVTGKGNSSESIEAIREYEEEFFQNSKLLKTSMLKAHQVTTRNLSLAVSDCFWKMVRESVEQQADSFKATRFNLETEWKNNYPRLRELDRNELFEKAKNEILDEVISLSQVTPKHWEEILQQSLWERVSTHVIENIYLPAAQTMNSGTFNTTVDIKLKQWTDKQLPNKAVEVAWETLQEEFSRFMTEPKGKEHDDIFDKLKEAVKEESIKRHKWNDFAEDSLRVIQHNALEDRSISDKQQWDAAIYFMEEALQARLKDTENAIENMVGPDWKKRWLYWKNRTQEQCVHNETKNELEKMLKCNEEHPAYLASDEITTVRKNLESRGVEVDPSLIKDTWHQVYRRHFLKTALNHCNLCRRGFYYYQRHFVDSELECNDVVLFWRIQRMLAITANTLRQQLTNTEVRRLEKNVKEVLEDFAEDGEKKIKLLTGKRVQLAEDLKKVREIQEKLDAFIEALHQEK
modifications: endogenous lysine acetylation, sites listed in Figure 2c
notes: Optic Atrophy 1 (OPA1), human, short form (s-OPA1), residues 195-960; domain model of isoform 1; Made as a deacetylation mimetic; source: E. coli BL21 (DE3), purified (glutathione resin, 3C protease cleavage, size exclusion chromatography)
B2: s-OPA1 K342Q (domain or fragment, human, UniProt O60313-1 195-960, looked up)
chain: ATDRGSESDKHFRKVSDKEKIDQLQEELLHTQLKYQRILERLEKENKELRKLVLQKDDKGIHHRKLKKSLIDMYSEVLDVLSDYDASYNTQDHLPRVVVVGDQSAGKTSVLEMIAQARIFPRGSGEMMTRSPVKVTLSEGPHHVALFQDSSREFDLTKEEDLAALRHEIELRMRKNVKEGCTVSPETISLNVKGPGLQRMVLVDLPGVINTVTSGMAPDTKETIFSISKAYMQNPNAIILCIQDGSVDAERSIVTDLVSQMDPHGRRTIFVLTKVDLAEKNVASPSRIQQIIEGKLFPMKALGYFAVVTGKGNSSESIEAIREYEEEFFQNSKLLKTSMLKAHQVTTRNLSLAVSDCFWKMVRESVEQQADSFKATRFNLETEWKNNYPRLRELDRNELFEKAKNEILDEVISLSQVTPKHWEEILQQSLWERVSTHVIENIYLPAAQTMNSGTFNTTVDIKLKQWTDKQLPNKAVEVAWETLQEEFSRFMTEPKGKEHDDIFDKLKEAVKEESIKRHKWNDFAEDSLRVIQHNALEDRSISDKQQWDAAIYFMEEALQARLKDTENAIENMVGPDWKKRWLYWKNRTQEQCVHNETKNELEKMLKCNEEHPAYLASDEITTVRKNLESRGVEVDPSLIKDTWHQVYRRHFLKTALNHCNLCRRGFYYYQRHFVDSELECNDVVLFWRIQRMLAITANTLRQQLTNTEVRRLEKNVKEVLEDFAEDGEKKIKLLTGKRVQLAEDLKKVREIQEKLDAFIEALHQEK
modifications: 11 additional acetylation sites (endogenous; listed in Figure 2c)
notes: Optic Atrophy 1 (OPA1), human, short form (s-OPA1), residues 195-960; domain model of isoform 1; Gene bought from Genscript in the pGS-21a vector; source: E. coli BL21 (DE3), purified (glutathione resin, 3C protease cleavage, size exclusion chromatography)
B3: s-OPA1 K342R (domain or fragment, human, UniProt O60313-1 195-960, looked up)
chain: ATDRGSESDKHFRKVSDKEKIDQLQEELLHTQLKYQRILERLEKENKELRKLVLQKDDKGIHHRKLKKSLIDMYSEVLDVLSDYDASYNTQDHLPRVVVVGDQSAGKTSVLEMIAQARIFPRGSGEMMTRSPVKVTLSEGPHHVALFRDSSREFDLTKEEDLAALRHEIELRMRKNVKEGCTVSPETISLNVKGPGLQRMVLVDLPGVINTVTSGMAPDTKETIFSISKAYMQNPNAIILCIQDGSVDAERSIVTDLVSQMDPHGRRTIFVLTKVDLAEKNVASPSRIQQIIEGKLFPMKALGYFAVVTGKGNSSESIEAIREYEEEFFQNSKLLKTSMLKAHQVTTRNLSLAVSDCFWKMVRESVEQQADSFKATRFNLETEWKNNYPRLRELDRNELFEKAKNEILDEVISLSQVTPKHWEEILQQSLWERVSTHVIENIYLPAAQTMNSGTFNTTVDIKLKQWTDKQLPNKAVEVAWETLQEEFSRFMTEPKGKEHDDIFDKLKEAVKEESIKRHKWNDFAEDSLRVIQHNALEDRSISDKQQWDAAIYFMEEALQARLKDTENAIENMVGPDWKKRWLYWKNRTQEQCVHNETKNELEKMLKCNEEHPAYLASDEITTVRKNLESRGVEVDPSLIKDTWHQVYRRHFLKTALNHCNLCRRGFYYYQRHFVDSELECNDVVLFWRIQRMLAITANTLRQQLTNTEVRRLEKNVKEVLEDFAEDGEKKIKLLTGKRVQLAEDLKKVREIQEKLDAFIEALHQEK
modifications: 18 acetylated lysine sites (endogenous; listed in Figure 2c)
notes: as for B2
B4: s-OPA1 K579Q (domain or fragment, human, UniProt O60313-1 195-960, looked up)
chain: ATDRGSESDKHFRKVSDKEKIDQLQEELLHTQLKYQRILERLEKENKELRKLVLQKDDKGIHHRKLKKSLIDMYSEVLDVLSDYDASYNTQDHLPRVVVVGDQSAGKTSVLEMIAQARIFPRGSGEMMTRSPVKVTLSEGPHHVALFKDSSREFDLTKEEDLAALRHEIELRMRKNVKEGCTVSPETISLNVKGPGLQRMVLVDLPGVINTVTSGMAPDTKETIFSISKAYMQNPNAIILCIQDGSVDAERSIVTDLVSQMDPHGRRTIFVLTKVDLAEKNVASPSRIQQIIEGKLFPMKALGYFAVVTGKGNSSESIEAIREYEEEFFQNSKLLKTSMLKAHQVTTRNLSLAVSDCFWKMVRESVEQQADSFKATRFNLETEWQNNYPRLRELDRNELFEKAKNEILDEVISLSQVTPKHWEEILQQSLWERVSTHVIENIYLPAAQTMNSGTFNTTVDIKLKQWTDKQLPNKAVEVAWETLQEEFSRFMTEPKGKEHDDIFDKLKEAVKEESIKRHKWNDFAEDSLRVIQHNALEDRSISDKQQWDAAIYFMEEALQARLKDTENAIENMVGPDWKKRWLYWKNRTQEQCVHNETKNELEKMLKCNEEHPAYLASDEITTVRKNLESRGVEVDPSLIKDTWHQVYRRHFLKTALNHCNLCRRGFYYYQRHFVDSELECNDVVLFWRIQRMLAITANTLRQQLTNTEVRRLEKNVKEVLEDFAEDGEKKIKLLTGKRVQLAEDLKKVREIQEKLDAFIEALHQEK
modifications: endogenous lysine acetylation, sites listed in Figure 2c
notes: as for B2

Target: the molecule itself
Assay: mass photometry; protein in solution at 75 nM final; 20 mM HEPES-NaOH pH 7.5, 130 mM NaCl, 10 mM KCl, 2 mM MgCl2, 2 mM DTT, 2% glycerol; Refeyn mass photometer; mass measured three times for each protein

Stoichiometry N, 2:
B1
B2
B3
B4

Reference: PMC12120360, “Lysine acetylation modulates s‐OPA1 GTPase activity and oligomerization in mitochondrial membrane remodeling” (Protein Science : A Publication of the Protein Society, 2025)
